{"source": "patent US20260117202A1", "experiment_in_all_cases": "sandwich ELISA, AM14 coated, supernatant 1:10", "key": {"FHM-5 (RSV strain A2)": {"biological_target": "FHM-5 (RSV strain A2) (UniProt P03420)"}, "FHS-31 (RSV strain A2)": {"biological_target": "FHS-31 (RSV strain A2) (UniProt P03420)"}, "FHS-68 (RSV strain A2)": {"biological_target": "FHS-68 (RSV strain A2) (UniProt P03420)"}, "FHS-22 (RSV strain A2)": {"biological_target": "FHS-22 (RSV strain A2) (UniProt P03420)"}, "FHM-13 (RSV strain A2)": {"biological_target": "FHM-13 (RSV strain A2) (UniProt P03420)"}, "FHS-15 (RSV strain A2)": {"biological_target": "FHS-15 (RSV strain A2) (UniProt P03420)"}, "FHS-45 (RSV strain A2)": {"biological_target": "FHS-45 (RSV strain A2) (UniProt P03420)"}, "FHS-47 (RSV strain A2)": {"biological_target": "FHS-47 (RSV strain A2) (UniProt P03420)"}, "FHM-8 (RSV strain A2)": {"biological_target": "FHM-8 (RSV strain A2) (UniProt P03420)"}, "FHS-86 (RSV strain A2)": {"biological_target": "FHS-86 (RSV strain A2) (UniProt P03420)"}, "FHS-67 (RSV strain A2)": {"biological_target": "FHS-67 (RSV strain A2) (UniProt P03420)"}, "FHM-18 (RSV strain A2)": {"biological_target": "FHM-18 (RSV strain A2) (UniProt P03420)"}, "FHS-36 (RSV strain A2)": {"biological_target": "FHS-36 (RSV strain A2) (UniProt P03420)"}, "FHS-9 (RSV strain A2)": {"biological_target": "FHS-9 (RSV strain A2) (UniProt P03420)"}, "FHS-49 (RSV strain A2)": {"biological_target": "FHS-49 (RSV strain A2) (UniProt P03420)"}, "FHS-91 (RSV strain A2)": {"biological_target": "FHS-91 (RSV strain A2) (UniProt P03420)"}, "FHS-27 (RSV strain A2)": {"biological_target": "FHS-27 (RSV strain A2) (UniProt P03420)"}, "FHS-83 (RSV strain A2)": {"biological_target": "FHS-83 (RSV strain A2) (UniProt P03420)"}, "FHS-3 (RSV strain A2)": {"biological_target": "FHS-3 (RSV strain A2) (UniProt P03420)"}, "FHS-48 (RSV strain A2)": {"biological_target": "FHS-48 (RSV strain A2) (UniProt P03420)"}, "FHS-21 (RSV strain A2)": {"biological_target": "FHS-21 (RSV strain A2) (UniProt P03420)"}, "FHS-52 (RSV strain A2)": {"biological_target": "FHS-52 (RSV strain A2) (UniProt P03420)"}, "FHS-62 (RSV strain A2)": {"biological_target": "FHS-62 (RSV strain A2) (UniProt P03420)"}, "FHS-85 (RSV strain A2)": {"biological_target": "FHS-85 (RSV strain A2) (UniProt P03420)"}, "FHM-16 (RSV strain A2)": {"biological_target": "FHM-16 (RSV strain A2) (UniProt P03420)"}, "FHS-6 (RSV strain A2)": {"biological_target": "FHS-6 (RSV strain A2) (UniProt P03420)"}, "FHM-17 (RSV strain A2)": {"biological_target": "FHM-17 (RSV strain A2) (UniProt P03420)"}, "FHM-23 (RSV strain A2)": {"biological_target": "FHM-23 (RSV strain A2) (UniProt P03420)"}, "FHS-29 (RSV strain A2)": {"biological_target": "FHS-29 (RSV strain A2) (UniProt P03420)"}, "FHM-24 (RSV strain A2)": {"biological_target": "FHM-24 (RSV strain A2) (UniProt P03420)"}, "FHS-76 (RSV strain A2)": {"biological_target": "FHS-76 (RSV strain A2) (UniProt P03420)"}, "FHS-28 (RSV strain A2)": {"biological_target": "FHS-28 (RSV strain A2) (UniProt P03420)"}, "FHM-21 (RSV strain A2)": {"biological_target": "FHM-21 (RSV strain A2) (UniProt P03420)"}, "FHS-2 (RSV strain A2)": {"biological_target": "FHS-2 (RSV strain A2) (UniProt P03420)"}, "FHS-11 (RSV strain A2)": {"biological_target": "FHS-11 (RSV strain A2) (UniProt P03420)"}, "FHS-74 (RSV strain A2)": {"biological_target": "FHS-74 (RSV strain A2) (UniProt P03420)"}, "FHS-50 (RSV strain A2)": {"biological_target": "FHS-50 (RSV strain A2) (UniProt P03420)"}, "FHS-13 (RSV strain A2)": {"biological_target": "FHS-13 (RSV strain A2) (UniProt P03420)"}, "FHS-32 (RSV strain A2)": {"biological_target": "FHS-32 (RSV strain A2) (UniProt P03420)"}, "FHS-53 (RSV strain A2)": {"biological_target": "FHS-53 (RSV strain A2) (UniProt P03420)"}, "FHS-77 (RSV strain A2)": {"biological_target": "FHS-77 (RSV strain A2) (UniProt P03420)"}}, "data": [{"substance": "AM14 monoclonal antibody", "values": [{"measurement": "OD value", "setting": "FHM-5 (RSV strain A2)", "result": 1.96, "unit": "OD"}, {"measurement": "OD value", "setting": "FHS-31 (RSV strain A2)", "result": 0.007, "unit": "OD"}, {"measurement": "OD value", "setting": "FHS-68 (RSV strain A2)", "result": 1.99, "unit": "OD"}, {"measurement": "OD value", "setting": "FHS-22 (RSV strain A2)", "result": 0.01, "unit": "OD"}, {"measurement": "OD value", "setting": "FHM-13 (RSV strain A2)", "result": 1.07, "unit": "OD"}, {"measurement": "OD value", "setting": "FHS-15 (RSV strain A2)", "result": 0.091, "unit": "OD"}, {"measurement": "OD value", "setting": "FHS-45 (RSV strain A2)", "result": 0.12, "unit": "OD"}, {"measurement": "OD value", "setting": "FHS-47 (RSV strain A2)", "result": 1.32, "unit": "OD"}, {"measurement": "OD value", "setting": "FHM-8 (RSV strain A2)", "result": 0.016, "unit": "OD"}, {"measurement": "OD value", "setting": "FHS-86 (RSV strain A2)", "result": 0.062, "unit": "OD"}, {"measurement": "OD value", "setting": "FHS-67 (RSV strain A2)", "result": 1.86, "unit": "OD"}, {"measurement": "OD value", "setting": "FHM-18 (RSV strain A2)", "result": 1.8, "unit": "OD"}, {"measurement": "OD value", "setting": "FHS-36 (RSV strain A2)", "result": 0.009, "unit": "OD"}, {"measurement": "OD value", "setting": "FHS-9 (RSV strain A2)", "result": 0.009, "unit": "OD"}, {"measurement": "OD value", "setting": "FHS-49 (RSV strain A2)", "result": 1.96, "unit": "OD"}, {"measurement": "OD value", "setting": "FHS-91 (RSV strain A2)", "result": 0.008, "unit": "OD"}, {"measurement": "OD value", "setting": "FHS-27 (RSV strain A2)", "result": 0.005, "unit": "OD"}, {"measurement": "OD value", "setting": "FHS-83 (RSV strain A2)", "result": 0.064, "unit": "OD"}, {"measurement": "OD value", "setting": "FHS-3 (RSV strain A2)", "result": 0.076, "unit": "OD"}, {"measurement": "OD value", "setting": "FHS-48 (RSV strain A2)", "result": 2.42, "unit": "OD"}, {"measurement": "OD value", "setting": "FHS-21 (RSV strain A2)", "result": 0.008, "unit": "OD"}, {"measurement": "OD value", "setting": "FHS-52 (RSV strain A2)", "result": 0.007, "unit": "OD"}, {"measurement": "OD value", "setting": "FHS-62 (RSV strain A2)", "result": 0.01, "unit": "OD"}, {"measurement": "OD value", "setting": "FHS-85 (RSV strain A2)", "result": 0.008, "unit": "OD"}, {"measurement": "OD value", "setting": "FHM-16 (RSV strain A2)", "result": 0.26, "unit": "OD"}, {"measurement": "OD value", "setting": "FHS-6 (RSV strain A2)", "result": 2.65, "unit": "OD"}, {"measurement": "OD value", "setting": "FHM-17 (RSV strain A2)", "result": 0.006, "unit": "OD"}, {"measurement": "OD value", "setting": "FHM-23 (RSV strain A2)", "result": 1.89, "unit": "OD"}, {"measurement": "OD value", "setting": "FHS-29 (RSV strain A2)", "result": 0.007, "unit": "OD"}, {"measurement": "OD value", "setting": "FHM-24 (RSV strain A2)", "result": 1.61, "unit": "OD"}, {"measurement": "OD value", "setting": "FHS-76 (RSV strain A2)", "result": 0.821, "unit": "OD"}, {"measurement": "OD value", "setting": "FHS-28 (RSV strain A2)", "result": 0.008, "unit": "OD"}, {"measurement": "OD value", "setting": "FHM-21 (RSV strain A2)", "result": 0.007, "unit": "OD"}, {"measurement": "OD value", "setting": "FHS-2 (RSV strain A2)", "result": 0.012, "unit": "OD"}, {"measurement": "OD value", "setting": "FHS-11 (RSV strain A2)", "result": 2.04, "unit": "OD"}, {"measurement": "OD value", "setting": "FHS-74 (RSV strain A2)", "result": 0.023, "unit": "OD"}, {"measurement": "OD value", "setting": "FHS-50 (RSV strain A2)", "result": 2.3, "unit": "OD"}, {"measurement": "OD value", "setting": "FHS-13 (RSV strain A2)", "result": 0.013, "unit": "OD"}, {"measurement": "OD value", "setting": "FHS-32 (RSV strain A2)", "result": 0.008, "unit": "OD"}, {"measurement": "OD value", "setting": "FHS-53 (RSV strain A2)", "result": 0.008, "unit": "OD"}, {"measurement": "OD value", "setting": "FHS-77 (RSV strain A2)", "result": 0.06, "unit": "OD"}]}]}
